# Measurements from IntAct's records for PubMed 20603001.
# B1: Somatostatin receptor type 3 (Mus musculus), P30935 (parent)
# chain: MATVTYPSSEPTTLDPGNASSTWPLDTTLGNTSAGASLTGLAVSGILISLVYLVVCVVGLLGNSLVIYVVLRHTSSPSVTSVYILNLALADELFMLGLPFLAAQNALSYWPFGSLMCRLVMAVDGINQFTSIFCLTVMSVDRYLAVVHPTRSARWRTAPVARTVSAAVWVASAVVVLPVVVFSGVPRGMSTCHMQWPEPAAAWRTAFIIYTAALGFFGPLLVICLCYLLIVVKVRSTTRRVRAPSCQWVQAPACQRRRRSERRVTRMVVAVVALFVLCWMPFYLLNIVNVVCPLPEEPAFFGLYFLVVALPYANSCANPILYGFLSYRFKQGFRRILLRPSRRIRSQEPGSGPPEKTEEEEDEEEEERREEEERRMQRGQEMNGRLSQIAQAGTSGQQPRPCTGTAKEQQLLPQEATAGDKASTLSHL
# partner: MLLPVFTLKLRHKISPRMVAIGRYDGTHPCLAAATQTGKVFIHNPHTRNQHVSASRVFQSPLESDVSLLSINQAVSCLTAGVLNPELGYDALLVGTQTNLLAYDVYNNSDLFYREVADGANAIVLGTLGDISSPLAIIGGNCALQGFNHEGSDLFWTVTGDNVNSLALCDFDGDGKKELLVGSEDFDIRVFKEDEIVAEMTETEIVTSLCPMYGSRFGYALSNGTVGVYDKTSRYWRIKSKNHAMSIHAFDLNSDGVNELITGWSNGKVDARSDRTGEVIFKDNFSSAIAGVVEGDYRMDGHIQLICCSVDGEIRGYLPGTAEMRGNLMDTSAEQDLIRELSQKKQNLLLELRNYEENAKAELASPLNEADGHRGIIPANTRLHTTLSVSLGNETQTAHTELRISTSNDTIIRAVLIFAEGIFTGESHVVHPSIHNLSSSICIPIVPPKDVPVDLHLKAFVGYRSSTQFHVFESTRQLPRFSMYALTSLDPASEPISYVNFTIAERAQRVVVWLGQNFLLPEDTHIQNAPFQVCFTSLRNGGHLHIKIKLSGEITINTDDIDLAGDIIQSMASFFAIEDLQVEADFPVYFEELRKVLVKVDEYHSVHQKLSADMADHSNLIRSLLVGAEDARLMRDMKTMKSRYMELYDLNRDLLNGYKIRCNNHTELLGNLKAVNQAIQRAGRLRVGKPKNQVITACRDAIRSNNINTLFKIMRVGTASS
# B2: ADP-ribosylation factor-like protein 6 (Homo sapiens), Q9H0F7 (parent)
# chain: MGLLDRLSVLLGLKKKEVHVLCLGLDNSGKTTIINKLKPSNAQSQNILPTIGFSIEKFKSSSLSFTVFDMSGQGRYRNLWEHYYKEGQAIIFVIDSSDRLRMVVAKEELDTLLNHPDIKHRRIPILFFANKMDLRDAVTSVKVSQLLCLENIKDKPWHICASDAIKGEGLQEGVDWLQDQIQTVKT
# partner: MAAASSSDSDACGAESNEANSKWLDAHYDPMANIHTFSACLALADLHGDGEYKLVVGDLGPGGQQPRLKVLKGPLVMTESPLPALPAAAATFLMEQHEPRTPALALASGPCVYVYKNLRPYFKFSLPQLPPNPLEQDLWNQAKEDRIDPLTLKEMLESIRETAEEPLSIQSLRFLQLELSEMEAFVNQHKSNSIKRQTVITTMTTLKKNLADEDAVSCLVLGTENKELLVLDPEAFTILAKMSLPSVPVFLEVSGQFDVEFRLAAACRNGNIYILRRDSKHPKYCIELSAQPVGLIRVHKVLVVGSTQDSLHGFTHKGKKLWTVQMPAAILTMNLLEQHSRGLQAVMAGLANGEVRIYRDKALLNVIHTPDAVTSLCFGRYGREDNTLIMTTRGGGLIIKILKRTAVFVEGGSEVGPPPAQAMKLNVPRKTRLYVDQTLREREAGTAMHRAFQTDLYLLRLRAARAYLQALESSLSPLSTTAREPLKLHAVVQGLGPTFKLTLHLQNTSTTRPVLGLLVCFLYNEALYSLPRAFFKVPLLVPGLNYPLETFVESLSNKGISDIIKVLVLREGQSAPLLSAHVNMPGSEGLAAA
# Variants of: B1
# Details: with bbs2_human BBS2, Q9BXC9
row,Variant,effect of a mutation on the interaction
1,C246A;Q247A,decreasing interaction
2,C246A,disrupting interaction
3,P244A;Q247A,increasing interaction

# Now from value to variant:
row,effect of a mutation on the interaction,Variant
1,increasing interaction,Q247A
2,increasing interaction,A243F;Q247F

# Variants of: B2
# Details: with bbs1_human BBS1, Q8NFJ9
row,effect of a mutation on the interaction,Variant
1,increasing interaction,Q73L
